US20190185898A1 (UNIVERSITY OF MARYLAND BALTIMORE COUNTY, published 2019)

Biological target: T1, core-fucosylated complex type glycoform of rituximab (30)
T1 construct: Obtained from 28 by AlfC E274A catalysed core fucosylation; also called fucosylated rituximab (30); core fucosylated antibody (30)
Assay: ELISA, glycoprotein coated, AAL-biotin in serial dilution
Description: The glycoprotein (20, 21, 28 or 30) (10 μg/ml) in a phosphate buffer (pH 7.5) was coated onto a 96-well plate (UltraCruz®) at 4° C. for overnight. After wash twice, 2% bovine serum albumin in PBS containing Tween® 20 (PBST buffer) was added to block the plate for 2 h. Subsequently, after washed twice again, a serial dilution of AAL-biotin ranging from 0.1 μM to 1000 μM in PBST buffer was added and the plate was incubated for 1 h. After washing, peroxidase streptavidin (2 μg/mL) (Jackson ImmunoResearch Inc.) was added and incubated for 1 h. Finally, 100 μL of substrate, 3, 3′, 5, 5′-tetramethylbenzidine was added for signal development. The reaction was stopped by the adding 100 μL of 20% sulfuric acid (v/v). The absorbance at 450 nm was measured using SpectraMax M5 microplate reader (Molecular Devices). For the binding of the N-glycans, the Fmoc-labeled N-glycans released from 20, 21, 28 and 30 (1 μg/ml) were coated on the plate and the ELISA analysis was performed in the same manner as that of the glycoproteins.

B1: Aleuria aurantia lectin (AAL) (other, UniProt P18891 2-313, looked up)
chain: PTEFLYTSKIAAISWAATGGRQQRVYFQDLNGKIREAQRGGDNPWTGGSSQNVIGEAKLFSPLAAVTWKSAQGIQIRVYCVNKDNILSEFVYDGSKWITGQLGSVGVKVGSNSKLAALQWGGSESAPPNIRVYYQKSNGSGSSIHEYVWSGKWTAGASFGSTVPGTGIGATAIGPGRLRIYYQATDNKIREHCWDSNSWYVGGFSASASAGVSIAAISWGSTPNIRVYWQKGREELYEAAYGGSWNTPGQIKDASRPTPSLPDTFIAANSSGNIDISVFFQASGVSLQQWQWISGKGWSIGAVVPTGTPAGW
modifications: biotin label (AAL-biotin), site not stated
notes: Lectin that recognises the α1,6-fucosylated glycan; Added in serial dilution (0.1 µM to 1000 µM) to the coated glycoprotein; also called AAL-biotin
  EC50: 15 µM
  fold higher affinity than core-fucosylated RNase B (21): ~17 fold
